Experimental data from the nanobody polyreactivity screen of Harvey et al. (2022).

Assay: yeast display, Sf9 membrane polyspecificity reagent, FACS + sequencing; frameworks hold sequencing errors
Summary of the method: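 Nanobodies came from a synthetic yeast display library in Saccharomyces cerevisiae BJ5465, induced with galactose for 36–48 hours and stained for 1 hour at 4 °C with 10% biotinylated, detergent-solubilized Sf9 membrane reagent. Cells were enriched on streptavidin microbeads and then FACS-sorted, with low and high (top ~1%) gates set on anti-HA fluorescence for expression and streptavidin fluorescence for reagent binding. Each polyreactivity label reflects the gate a clone came from. Genes were amplified by colony PCR, sequenced by MiSeq 2 × 250 and filtered by CDR length.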

Row | Sequence | polyreactivity (PSR sort gate)
1 | QVQLVESGGGLVQAGGSLRLSCAASGITFIRNAMGWYRQAPGKERELVAAISYRGGSTYYADSVKGRFTISRDNAKNTVYLQMNSLKPEDTAVYYCAAARKLDATTYYKFDYWGQGTQVTVSS | high polyreactivity
2 | QVQLVESGGGLVQAGGSLRLSCAASGITFIRNAMGWYRQAPGKERELVAAISYRGGSTYYADSVKGRFTISRDNAKNTVYLQMNSLKPEDTAVYYCAAKRYGYKMYYWGQGTQVTVSS | high polyreactivity
3 | QVQLVESGGGLVQAGGSLRLSCAASGITFISYAMGWYRQAPGKEMELVAAISSSGGRTYYADSVKGRFTISRDNAKNTVYLQMNSLKPEDTAVYYCAADGYPEYPRYGYWGQGTQVTVSS | high polyreactivity
4 | QVQLVESGGGLVQAGGSLRLSCAASGITFIVNTMGWYRQAPGKEREFVATISANSDGTYYADSVKGRFTISRDIAKNTVYLQKNSLKPEDTAVYYWGQGTQVTVSS | low polyreactivity
5 | QVQLVESGGGLVQAGGSLRLSCAASGITFIYYAMGWYRQAPGKERELVAAISRSGGSTYYADSVKGRFTISRDNAKNTVYLQMNSLKPEDTAVYYCAADGTKFSGRVTGDYWGQGTQVTVSS | high polyreactivity
6 | QVQLVESGGGLVQAGGSLRLSCAASGITFIYYAMGWYRQAPGKERELVAAITWRGGSTYYADSVKGRFTISRDNAKYTVYLQMNSLKPEDTAVYYCNKGGISGRDYWGQGTQVTVSS | high polyreactivity
7 | QVQLVESGGGLVQAGGSLRLSCAASGITFIYYHMGWYRQAPGKERELVAAINWSGGRTYYADSVKGRFTISRDNAKNTVYVQMNSLIPEDTAVYYCAADSWRPVYLGYYWGQGTQVTVSS | high polyreactivity
8 | QVQLVESGGGLVQAGGSLRLSCAASGITFKDYAMGWYRQATGKERELVAVISYSGGSTYYADSVKGRFTISRDNAKNTVYLQMNSLKPEDTAVYYCAARVGPEYDWGQGTQVTVSS | low polyreactivity
9 | QVQLVESGGGLVQAGGSLRLSCAASGITFKGNAMGWYRQAPGKERELVAAIRWRAGRTYYADSVKGRFTISRDNAKNTVYLQMNSLKPEDTAVYYCAAVGRYAYRRGSFLAYKSNYDYWGQGTQVTVSS | high polyreactivity
10 | QVQLVESGGGLVQAGGSLRLSCAASGITFKGYTMGWYRQAPGKERELVATISRGGRTYADSVKGRFTISRDNAKNTVYLQMNSLKPEDTAVYYCAADKYWAQNDYWGQGTQVTVSS | low polyreactivity
11 | QVQLVESGGGLVQAGGSLRLSCAASGITFKTYAMGWYRQAPGKERELVATINRGSRTNYADSVKGRFTISRDNAKNTVYLQMNSLKPEDTAVYYCAAHYTTFIPSPDGDYLGQGTQVTVSS | low polyreactivity
12 | QVQLVESGGGLVQAGGSLRLSCAASGITFKYYAMGWYRQAPGKERELVAAISRGGTTSYADSVKGRFTISRDNAKNTVYLQMNSLKPEETAVYYCAAKYWWYPYFTVDYDYWGQGTQVTVSS | high polyreactivity
13 | QVQLVESGGGLVQAGGSLRLSCAASGITFKYYAMGWYRQAPGKERELVAAITRGGSTYYADSVKRRFTISRDNAKTTVYLQMNSLKPVDTAVYYCNKARTYELYWGQGTQVTVSS | high polyreactivity
14 | QVQLVESGGGLVQAGGSLRLSCAASGITFKYYTMAWYRQAPGKERELVAAISRSGGSTYYADSVKGRFTISRDNAKNTVYLQMMSLKPEDTAVYYCAAERGAYRGVTFTYGYWGQGTQVTLSS | high polyreactivity
15 | QVQLVESGGGLVQAGGSLRLSCAASGITFLHYAMGWYRQAPGKERELVARITYSGSSTYYADSVKGRFTISRDNAKNTVYLQMNSLKPEDTAVYYCNARASWGRWSRTGTPRYDYWGQGTQVTVSS | high polyreactivity
16 | QVQLVESGGGLVQAGGSLRLSCAASGITFLHYAMGWYRQAPGQERELVAAIDYSGGSTYYADSVKGRFTISRDNAKNTVYLEMKSLKPEDTAVYYCNARVPRYNGGSTMEYWGQGTQVTVSS | high polyreactivity
17 | QVQLVESGGGLVQAGGSLRLSCAASGITFLPYAMGWYRQAPGKERELVAAITRGGGSTYADSVKGRFTISRDNAKNSVYFQMISLKPEDTAVYYCAKLYGRGSWYEDYDYWGQGTQVTVSS | low polyreactivity
